Results published in patent US20260001928A1 (CORTERIA PHARMACEUTICALS, priority 2022, published 2026).
*1 amine or outer side, *2 acyl side, *3 side chain or, on linkers, in order; H or OH if unused. Where no end group is shown, it is not given here. Side-chain parts run from the residue outwards. [ ]: non-standard residue; d: D form. The star is where a group is joined. C18 diacid = O=C(O)CCCCCCCCCCCCCCCCC(=O)*; C16 diacid = O=C(O)CCCCCCCCCCCCCCC(=O)*; γGlu = O=C(O)[C@H](CCC(=O)[*:2])N[*:1]; NMeI = CC[C@H](C)[C@H](NC)C(=O)O; αMeL = CC(C)C[C@](C)(N)C(=O)O; Pentanoyl = CCCCC(=O)*; AEEA = NCCOCCOCC(=O)O; Aib = CC(C)(N)C(=O)O

T1: CRF1R receptor (UniProt P34998 24-415, limits assumed)
T1 sequence (looked up): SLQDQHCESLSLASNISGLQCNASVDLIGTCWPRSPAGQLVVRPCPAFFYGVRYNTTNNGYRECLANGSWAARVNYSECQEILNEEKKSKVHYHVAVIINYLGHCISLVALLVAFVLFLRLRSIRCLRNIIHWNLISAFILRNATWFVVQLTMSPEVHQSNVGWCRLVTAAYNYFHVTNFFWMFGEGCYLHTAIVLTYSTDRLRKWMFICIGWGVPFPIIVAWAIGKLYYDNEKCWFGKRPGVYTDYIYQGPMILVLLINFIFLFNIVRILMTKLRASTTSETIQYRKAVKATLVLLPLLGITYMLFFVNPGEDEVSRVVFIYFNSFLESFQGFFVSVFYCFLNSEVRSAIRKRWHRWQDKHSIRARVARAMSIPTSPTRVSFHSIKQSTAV


Key:
CRF1R receptor = biological target: T1, CRF1R receptor; assay: cell-based or functional assay
[1] = biological target: human corticotropin-releasing factor 2a (CRF2a receptor) (human), Q13324; assay: cell-based or functional assay
human corticotropin-releasing factor 2a (CRF2a receptor) (human), Q13324, sequence (Q13324 20-411): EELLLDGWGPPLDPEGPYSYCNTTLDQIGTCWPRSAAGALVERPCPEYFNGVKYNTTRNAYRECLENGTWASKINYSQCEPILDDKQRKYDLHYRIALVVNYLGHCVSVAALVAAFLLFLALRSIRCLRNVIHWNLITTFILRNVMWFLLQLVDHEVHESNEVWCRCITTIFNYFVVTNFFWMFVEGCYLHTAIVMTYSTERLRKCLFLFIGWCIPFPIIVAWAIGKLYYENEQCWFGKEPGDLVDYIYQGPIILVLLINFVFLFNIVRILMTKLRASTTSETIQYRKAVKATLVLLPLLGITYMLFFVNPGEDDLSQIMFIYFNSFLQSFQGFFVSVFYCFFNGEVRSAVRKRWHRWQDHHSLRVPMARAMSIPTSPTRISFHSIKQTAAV

Binder	Emax (% I) (CRF1R receptor) [%]	EC50 [nM] (cAMP) [1]	EC50 (CRF1R receptor) [nM]
Ac-IVLSLD[dV]PIK[αMeL]K([AEEA-AEEA-γGlu-C18 diacid])KILLEQEKQKKQREQAETNVQILAQV-NH2 (SMILES CC[C@H](C)[C@H](NC(C)=O)C(=O)N[C@H](C(=O)N[C@@H](CC(C)C)C(=O)N[C@@H](CO)C(=O)N[C@@H](CC(C)C)C(=O)N[C@@H](CC(=O)O)C(=O)N[C@@H](C(=O)N1CCC[C@H]1C(=O)N[C@H](C(=O)N[C@@H](CCCCN)C(=O)N[C@@](C)(CC(C)C)C(=O)N[C@@H](CCCCNC(=O)COCCOCCNC(=O)COCCOCCNC(=O)CC[C@H](NC(=O)CCCCCCCCCCCCCCCCC(=O)O)C(=O)O)C(=O)N[C@@H](CCCCN)C(=O)N[C@H](C(=O)N[C@@H](CC(C)C)C(=O)N[C@@H](CC(C)C)C(=O)N[C@@H](CCC(=O)O)C(=O)N[C@@H](CCC(N)=O)C(=O)N[C@@H](CCC(=O)O)C(=O)N[C@@H](CCCCN)C(=O)N[C@@H](CCC(N)=O)C(=O)N[C@@H](CCCCN)C(=O)N[C@@H](CCCCN)C(=O)N[C@@H](CCC(N)=O)C(=O)N[C@@H](CCCNC(=N)N)C(=O)N[C@@H](CCC(=O)O)C(=O)N[C@@H](CCC(N)=O)C(=O)N[C@@H](C)C(=O)N[C@@H](CCC(=O)O)C(=O)N[C@H](C(=O)N[C@@H](CC(N)=O)C(=O)N[C@H](C(=O)N[C@@H](CCC(N)=O)C(=O)N[C@H](C(=O)N[C@@H](CC(C)C)C(=O)N[C@@H](C)C(=O)N[C@@H](CCC(N)=O)C(=O)N[C@H](C(N)=O)C(C)C)[C@@H](C)CC)C(C)C)[C@@H](C)O)[C@@H](C)CC)[C@@H](C)CC)C(C)C)C(C)C) [SEQ ID NO 111]	-3	2.58	
Ac-IVLSLD[dV]PIKLK([AEEA-AEEA-γGlu-γGlu-C18 diacid])Q[Aib]LLKQERQKKQREQAEKNVQILEQV-NH2 (SMILES CC[C@H](C)[C@H](NC(C)=O)C(=O)N[C@H](C(=O)N[C@@H](CC(C)C)C(=O)N[C@@H](CO)C(=O)N[C@@H](CC(C)C)C(=O)N[C@@H](CC(=O)O)C(=O)N[C@@H](C(=O)N1CCC[C@H]1C(=O)N[C@H](C(=O)N[C@@H](CCCCN)C(=O)N[C@@H](CC(C)C)C(=O)N[C@@H](CCCCNC(=O)COCCOCCNC(=O)COCCOCCNC(=O)CC[C@H](NC(=O)CC[C@H](NC(=O)CCCCCCCCCCCCCCCCC(=O)O)C(=O)O)C(=O)O)C(=O)N[C@@H](CCC(N)=O)C(=O)NC(C)(C)C(=O)N[C@@H](CC(C)C)C(=O)N[C@@H](CC(C)C)C(=O)N[C@@H](CCCCN)C(=O)N[C@@H](CCC(N)=O)C(=O)N[C@@H](CCC(=O)O)C(=O)N[C@@H](CCCNC(=N)N)C(=O)N[C@@H](CCC(N)=O)C(=O)N[C@@H](CCCCN)C(=O)N[C@@H](CCCCN)C(=O)N[C@@H](CCC(N)=O)C(=O)N[C@@H](CCCNC(=N)N)C(=O)N[C@@H](CCC(=O)O)C(=O)N[C@@H](CCC(N)=O)C(=O)N[C@@H](C)C(=O)N[C@@H](CCC(=O)O)C(=O)N[C@@H](CCCCN)C(=O)N[C@@H](CC(N)=O)C(=O)N[C@H](C(=O)N[C@@H](CCC(N)=O)C(=O)N[C@H](C(=O)N[C@@H](CC(C)C)C(=O)N[C@@H](CCC(=O)O)C(=O)N[C@@H](CCC(N)=O)C(=O)N[C@H](C(N)=O)C(C)C)[C@@H](C)CC)C(C)C)[C@@H](C)CC)C(C)C)C(C)C) [SEQ ID NO 27]	7	16.9	> 250
[NMeI]VLSLD[dV]PIKLK([AEEA-AEEA-γGlu-γGlu-C18 diacid])Q[Aib]LLKQERQKKQREQAEKNVQILEQV-NH2 (N-terminus assumed; SMILES CC[C@H](C)[C@H](NC)C(=O)N[C@H](C(=O)N[C@@H](CC(C)C)C(=O)N[C@@H](CO)C(=O)N[C@@H](CC(C)C)C(=O)N[C@@H](CC(=O)O)C(=O)N[C@@H](C(=O)N1CCC[C@H]1C(=O)N[C@H](C(=O)N[C@@H](CCCCN)C(=O)N[C@@H](CC(C)C)C(=O)N[C@@H](CCCCNC(=O)COCCOCCNC(=O)COCCOCCNC(=O)CC[C@H](NC(=O)CC[C@H](NC(=O)CCCCCCCCCCCCCCCCC(=O)O)C(=O)O)C(=O)O)C(=O)N[C@@H](CCC(N)=O)C(=O)NC(C)(C)C(=O)N[C@@H](CC(C)C)C(=O)N[C@@H](CC(C)C)C(=O)N[C@@H](CCCCN)C(=O)N[C@@H](CCC(N)=O)C(=O)N[C@@H](CCC(=O)O)C(=O)N[C@@H](CCCNC(=N)N)C(=O)N[C@@H](CCC(N)=O)C(=O)N[C@@H](CCCCN)C(=O)N[C@@H](CCCCN)C(=O)N[C@@H](CCC(N)=O)C(=O)N[C@@H](CCCNC(=N)N)C(=O)N[C@@H](CCC(=O)O)C(=O)N[C@@H](CCC(N)=O)C(=O)N[C@@H](C)C(=O)N[C@@H](CCC(=O)O)C(=O)N[C@@H](CCCCN)C(=O)N[C@@H](CC(N)=O)C(=O)N[C@H](C(=O)N[C@@H](CCC(N)=O)C(=O)N[C@H](C(=O)N[C@@H](CC(C)C)C(=O)N[C@@H](CCC(=O)O)C(=O)N[C@@H](CCC(N)=O)C(=O)N[C@H](C(N)=O)C(C)C)[C@@H](C)CC)C(C)C)[C@@H](C)CC)C(C)C)C(C)C) [SEQ ID NO 28]	6	2.2	> 250
Pentanoyl-VLSLD[dV]PIKLK([AEEA-AEEA-γGlu-γGlu-C18 diacid])Q[Aib]LLKQERQKKQREQAEKNVQILEQV-NH2 (SMILES CCCCC(=O)N[C@H](C(=O)N[C@@H](CC(C)C)C(=O)N[C@@H](CO)C(=O)N[C@@H](CC(C)C)C(=O)N[C@@H](CC(=O)O)C(=O)N[C@@H](C(=O)N1CCC[C@H]1C(=O)N[C@H](C(=O)N[C@@H](CCCCN)C(=O)N[C@@H](CC(C)C)C(=O)N[C@@H](CCCCNC(=O)COCCOCCNC(=O)COCCOCCNC(=O)CC[C@H](NC(=O)CC[C@H](NC(=O)CCCCCCCCCCCCCCCCC(=O)O)C(=O)O)C(=O)O)C(=O)N[C@@H](CCC(N)=O)C(=O)NC(C)(C)C(=O)N[C@@H](CC(C)C)C(=O)N[C@@H](CC(C)C)C(=O)N[C@@H](CCCCN)C(=O)N[C@@H](CCC(N)=O)C(=O)N[C@@H](CCC(=O)O)C(=O)N[C@@H](CCCNC(=N)N)C(=O)N[C@@H](CCC(N)=O)C(=O)N[C@@H](CCCCN)C(=O)N[C@@H](CCCCN)C(=O)N[C@@H](CCC(N)=O)C(=O)N[C@@H](CCCNC(=N)N)C(=O)N[C@@H](CCC(=O)O)C(=O)N[C@@H](CCC(N)=O)C(=O)N[C@@H](C)C(=O)N[C@@H](CCC(=O)O)C(=O)N[C@@H](CCCCN)C(=O)N[C@@H](CC(N)=O)C(=O)N[C@H](C(=O)N[C@@H](CCC(N)=O)C(=O)N[C@H](C(=O)N[C@@H](CC(C)C)C(=O)N[C@@H](CCC(=O)O)C(=O)N[C@@H](CCC(N)=O)C(=O)N[C@H](C(N)=O)C(C)C)[C@@H](C)CC)C(C)C)[C@@H](C)CC)C(C)C)C(C)C) [SEQ ID NO 29]	6	37.2	> 250
Ac-IVLSLD[dV]PIKLK([γGlu-C16 diacid])QILLKQERQKKQREQAEKN[Aib]QILEQV-NH2 (SMILES CC[C@H](C)[C@H](NC(C)=O)C(=O)N[C@H](C(=O)N[C@@H](CC(C)C)C(=O)N[C@@H](CO)C(=O)N[C@@H](CC(C)C)C(=O)N[C@@H](CC(=O)O)C(=O)N[C@@H](C(=O)N1CCC[C@H]1C(=O)N[C@H](C(=O)N[C@@H](CCCCN)C(=O)N[C@@H](CC(C)C)C(=O)N[C@@H](CCCCNC(=O)CC[C@H](NC(=O)CCCCCCCCCCCCCCC(=O)O)C(=O)O)C(=O)N[C@@H](CCC(N)=O)C(=O)N[C@H](C(=O)N[C@@H](CC(C)C)C(=O)N[C@@H](CC(C)C)C(=O)N[C@@H](CCCCN)C(=O)N[C@@H](CCC(N)=O)C(=O)N[C@@H](CCC(=O)O)C(=O)N[C@@H](CCCNC(=N)N)C(=O)N[C@@H](CCC(N)=O)C(=O)N[C@@H](CCCCN)C(=O)N[C@@H](CCCCN)C(=O)N[C@@H](CCC(N)=O)C(=O)N[C@@H](CCCNC(=N)N)C(=O)N[C@@H](CCC(=O)O)C(=O)N[C@@H](CCC(N)=O)C(=O)N[C@@H](C)C(=O)N[C@@H](CCC(=O)O)C(=O)N[C@@H](CCCCN)C(=O)N[C@@H](CC(N)=O)C(=O)NC(C)(C)C(=O)N[C@@H](CCC(N)=O)C(=O)N[C@H](C(=O)N[C@@H](CC(C)C)C(=O)N[C@@H](CCC(=O)O)C(=O)N[C@@H](CCC(N)=O)C(=O)N[C@H](C(N)=O)C(C)C)[C@@H](C)CC)[C@@H](C)CC)[C@@H](C)CC)C(C)C)C(C)C) [SEQ ID NO 16]	47	0.13	185
Ac-IVLSLD[dV]PIK[αMeL]K([γGlu-C16 diacid])KILLEQEKQKKQREQAETN[Aib]QILAQV-NH2 (SMILES CC[C@H](C)[C@H](NC(C)=O)C(=O)N[C@H](C(=O)N[C@@H](CC(C)C)C(=O)N[C@@H](CO)C(=O)N[C@@H](CC(C)C)C(=O)N[C@@H](CC(=O)O)C(=O)N[C@@H](C(=O)N1CCC[C@H]1C(=O)N[C@H](C(=O)N[C@@H](CCCCN)C(=O)N[C@@](C)(CC(C)C)C(=O)N[C@@H](CCCCNC(=O)CC[C@H](NC(=O)CCCCCCCCCCCCCCC(=O)O)C(=O)O)C(=O)N[C@@H](CCCCN)C(=O)N[C@H](C(=O)N[C@@H](CC(C)C)C(=O)N[C@@H](CC(C)C)C(=O)N[C@@H](CCC(=O)O)C(=O)N[C@@H](CCC(N)=O)C(=O)N[C@@H](CCC(=O)O)C(=O)N[C@@H](CCCCN)C(=O)N[C@@H](CCC(N)=O)C(=O)N[C@@H](CCCCN)C(=O)N[C@@H](CCCCN)C(=O)N[C@@H](CCC(N)=O)C(=O)N[C@@H](CCCNC(=N)N)C(=O)N[C@@H](CCC(=O)O)C(=O)N[C@@H](CCC(N)=O)C(=O)N[C@@H](C)C(=O)N[C@@H](CCC(=O)O)C(=O)N[C@H](C(=O)N[C@@H](CC(N)=O)C(=O)NC(C)(C)C(=O)N[C@@H](CCC(N)=O)C(=O)N[C@H](C(=O)N[C@@H](CC(C)C)C(=O)N[C@@H](C)C(=O)N[C@@H](CCC(N)=O)C(=O)N[C@H](C(N)=O)C(C)C)[C@@H](C)CC)[C@@H](C)O)[C@@H](C)CC)[C@@H](C)CC)C(C)C)C(C)C) [SEQ ID NO 44]	5	0.25	
